Test results taken from patent US20250163160A1 (Amgen, published 2025).
Changes are numbered by the printed parent chain. Numbers in names are those of the source. Values belong to the binder of their own block, whether it stands above or below them.

Key:
[1] = target: T1, human FGF21 receptor (FGF21R): full length human FGFR1c and full length human β-Klotho co-expressed on cells (human, UniProt P11362 22-822; Q86Z14 53-1044); assay: cell-based or functional assay
[2] = target: T1, human FGF21 receptor (FGF21R): full …; assay: cell-based or functional assay; remark: listed apart in the source

EC50 (read off the curve); luciferase reporter (RLU) in AM-1/D FGFR1c+β-Klotho Luc cells, FGF21 alone (0 nM 39F11) [1]: 1 to 2 nM
B1: Fibroblast Growth Factor 21 (FGF21), human (ligand)
chain: HPIPDSSPLLQFGGQVRQRYLYTDDAQQTEAHLEIREDGTVGGAADQSPESLLQLKALKPGVIQILGVKTSRFLCQRPDGALYGSLHFDPEACSFRELLLEDGYNVYQSEAHGLPLHLPGNKSPHRDPAPRGPARFLPLPGLPPAPPEPPGILAPQPPDVGSSDPLSMVGPSQGRSPSYAS
modifications: Alexa 647-NHS label (Example 1); biotin (Example 8, second Biacore analysis)

EC50 (nM), Erk-phosphorylation, human adipocyte assay [2]: 0.63 nM
B2: 16H7 variant, heavy chain H3, light chain D49A (antibody, human IgG2, lambda, V domains shown)
VH: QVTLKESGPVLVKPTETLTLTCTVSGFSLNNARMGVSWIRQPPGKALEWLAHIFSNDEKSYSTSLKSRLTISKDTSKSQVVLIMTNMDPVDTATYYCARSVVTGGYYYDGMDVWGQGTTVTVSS
VL: SYVLTQPPSVSVAPGQTARITCGGNNIGSESVHWYQQKPGQAPVLVVYADSDRPSGIPERFSGSNSGNTATLTISRVEAGDEADYYCQVWDGNSDHVVFGGGTKLTVLG

EC50 (nM), Erk-phosphorylation, human adipocyte assay [2]: 1.3 nM
B3: 16H7 variant, heavy chain H3, light chain D91A (antibody, human IgG2, lambda, V domains shown)
VH: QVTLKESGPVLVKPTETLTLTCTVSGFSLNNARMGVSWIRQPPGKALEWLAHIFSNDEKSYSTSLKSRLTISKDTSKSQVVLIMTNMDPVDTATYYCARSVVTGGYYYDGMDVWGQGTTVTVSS
VL: B2 VL with A49D, D91A
